# Test results from patent US20160024487A1, “THROMBIN SENSITIVE COAGULATION FACTOR X MOLECULES” (NOVO NORDISK A/S, priority 2013, published 2016).
# “And” between values parts separate entries of the source, which are not always exact repeats. Equal entries are not always repeated. Where no end group is shown, it is not given here. The star is where a group is joined. Dnp = O=[N+]([O-])c1ccc(*)c([N+](=O)[O-])c1; 2Abz = Nc1ccccc1C(=O)O
# Legend:
# [1] = molecular target: Human plasma purified α-thrombin (Homo sapiens, UniProt P00734); test: Thrombin cleavage kinetics of quenched fluorescence (QF) peptide substrates, progress curve; type: biochemical; conditions: for Fold-Improved (FpA): kcat/KM relative to FpA substrate Lys(Dnp)-DFLAEGGGVRIVGG-Lys(Abz); for Fold-Improved (PAR-1): kcat/KM relative to PAR 1 control substrate Lys(Dnp)-ATNATLDPRIVGG-Lys(Abz)
# [2] = molecular target: T1, Human plasma purified Factor Xa (Homo sapiens, UniProt P00742); test: Factor Xa cleavage kinetics of quenched fluorescence (QF) peptide substrates, progress curve; type: biochemical; conditions: for Specificity Ratio (FIIa/FXa): FIIa kcat/KM divided by FXa kcat/KM, natural sequence QF substrates; for specificity ratio: X4/X3 positional scanning QF library (Table 4), FIIa/FXa
# T1 construct: purchased Molecular Innovations, Inc, Novi Mich., USA; host or cells: human plasma
# T1 sequence (P00742 41-179 limits assumed): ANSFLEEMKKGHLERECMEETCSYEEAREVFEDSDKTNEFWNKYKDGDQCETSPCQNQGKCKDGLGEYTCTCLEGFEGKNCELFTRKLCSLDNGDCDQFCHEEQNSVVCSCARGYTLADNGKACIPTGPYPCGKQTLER
# T1 sequence (P00742 235-488 limits assumed): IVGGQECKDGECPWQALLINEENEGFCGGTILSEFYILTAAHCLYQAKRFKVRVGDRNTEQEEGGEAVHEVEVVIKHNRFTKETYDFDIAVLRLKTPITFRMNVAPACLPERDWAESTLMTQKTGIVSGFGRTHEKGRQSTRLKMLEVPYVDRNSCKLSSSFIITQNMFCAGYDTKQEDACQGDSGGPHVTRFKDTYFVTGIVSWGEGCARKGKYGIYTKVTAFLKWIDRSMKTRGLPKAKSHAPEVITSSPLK
Fold-Improved (FpA) [1],Fold-Improved (PAR-1) [1],Specificity Ratio (FIIa/FXa) [2],specificity ratio [2] [fold],Substance
9.7 and 8.9 and 8.2,1.4 and 1.3 and 1.2,,,"PAR 1: QF substrate Lys(Dnp)-X10-X1-IVGG-Lys(Abz), X10-X1 = KATNATLDPR (Table 3 r16) (K(Dnp)ATNATLDPRIVGGK(2Abz); also: template implies Lys(Dnp) before X10 K, letters have one K, taken as Lys(Dnp))"
0.001,0.000,0,,"Antithrombin: QF substrate Lys(Dnp)-X10-X1-IVGG-Lys(Abz), X10-X1 = ASTAVVIAGR (K(Dnp)ASTAVVIAGRIVGGK(2Abz))"
1.8,0.3,302,,"Factor V (2): QF substrate Lys(Dnp)-X10-X1-IVGG-Lys(Abz), X10-X1 = NRLAAALGIR (K(Dnp)NRLAAALGIRIVGGK(2Abz))"
32.3,4.7,,,"Factor VIII (1): QF substrate Lys(Dnp)-X10-X1-IVGG-Lys(Abz), X10-X1 = LSKNNAIEPR (K(Dnp)LSKNNAIEPRIVGGK(2Abz))"
97.8,14.2,6914,,"FpA_P: QF substrate Lys(Dnp)-X10-X1-IVGG-Lys(Abz), X10-X1 = DFLAEGGGPR; FpA with proline at X2 (K(Dnp)DFLAEGGGPRIVGGK(2Abz))"
2.3,0.3,13,,"Factor VIII (2): QF substrate Lys(Dnp)-X10-X1-IVGG-Lys(Abz), X10-X1 = YDEDENQSPR (K(Dnp)YDEDENQSPRIVGGK(2Abz))"
13.1,1.9,16,,"TAFI: QF substrate Lys(Dnp)-X10-X1-IVGG-Lys(Abz), X10-X1 = QISNDTVSPR (K(Dnp)QISNDTVSPRIVGGK(Abz))"
1.0,0.1,239,,"Osteopontin: QF substrate Lys(Dnp)-X10-X1-IVGG-Lys(Abz), X10-X1 = RGDSVVYGLR (K(Dnp)RGDSVVYGLRIVGGK(Abz))"
,,,~300,MKPR: QF library substrate Lys(Dnp)-ATNATX4X3PRIVGG-Lys(Abz) with X4-X1 = MKPR (K(Dnp)ATNATMKPRIVGGK(2Abz))
,,,~300,MTPR: QF library substrate Lys(Dnp)-ATNATX4X3PRIVGG-Lys(Abz) with X4-X1 = MTPR (K(Dnp)ATNATMTPRIVGGK(2Abz))
,,4,,"PAR1 (3): QF substrate with X6-X1 = ATLDPR, prime side IVGG (KATLDPRIVGGK)"
,,121,,"Lys(Dnp)-DFLAEGGGVRIVGG-Lys(Abz) (K(Dnp)DFLAEGGGVRIVGGK(2Abz)) [FpA, reference compound]"
23.1,3.4,40,,"PAR 4: QF substrate Lys(Dnp)-X10-X1-IVGG-Lys(Abz), X10-X1 = STPSILPAPR (K(Dnp)STPSILPAPRIVGGK(2Abz))"
0.04,0.01,5,,"PAR 3: QF substrate Lys(Dnp)-X10-X1-IVGG-Lys(Abz), X10-X1 = NLAKPTLPIK (K(Dnp)NLAKPTLPIKIVGGK(2Abz))"
49.2,7.1,559,,"Factor XI: QF substrate Lys(Dnp)-X10-X1-IVGG-Lys(Abz), X10-X1 = NESTTKIKPR (K(Dnp)NESTTKIKPRIVGGK(2Abz))"
0.2,0.03,7,,"Factor V (3): QF substrate Lys(Dnp)-X10-X1-IVGG-Lys(Abz), X10-X1 = PDNIAAWYLR (K(Dnp)PDNIAAWYLRIVGGK(2Abz))"
77.2,11.2,2,,"Factor V (1): QF substrate Lys(Dnp)-X10-X1-IVGG-Lys(Abz), X10-X1 = HTHHAPLSPR (K(Dnp)HTHHAPLSPRIVGGK(Abz))"
48.7,7.1,0,,"Thrombin (2): QF substrate Lys(Dnp)-X10-X1-IVGG-Lys(Abz), X10-X1 = SEYQTFFNPR (K(Dnp)SEYQTFFNPRIVGGK(Abz))"
0.7,0.1,1,,"FpB: QF substrate Lys(Dnp)-X10-X1-IVGG-Lys(Abz), X10-X1 = DNEEGFFSAR (K(Dnp)DNEEGFFSARIVGGK(2Abz))"
28.7,4.2,114,,"Factor XIII: QF substrate Lys(Dnp)-X10-X1-IVGG-Lys(Abz), X10-X1 = TVELQGVVPR (K(Dnp)TVELQGVVPRIVGGK(Abz))"
0.000,0.000,141,,"Thrombin (3): QF substrate Lys(Dnp)-X10-X1-IVGG-Lys(Abz), X10-X1 = EDSDRAIEGR (K(Dnp)EDSDRAIEGRIVGGK(2Abz))"
73.6,10.7,64,,"Thrombin (1): QF substrate Lys(Dnp)-X10-X1-IVGG-Lys(Abz), X10-X1 = DQVTVAMTPR (K(Dnp)DQVTVAMTPRIVGGK(2Abz))"
4.4,0.6,133,,"Protein C: QF substrate Lys(Dnp)-X10-X1-IVGG-Lys(Abz), X10-X1 = EDQEDQVDPR (K(Dnp)EDQEDQVDPRIVGGK(2Abz))"
,,,~300,WTPR: QF library substrate Lys(Dnp)-ATNATX4X3PRIVGG-Lys(Abz) with X4-X1 = WTPR (K(Dnp)ATNATWTPRIVGGK(2Abz))
,,4,,"PAR1 (2): QF substrate with X8-X1 = TNATLDPR, prime side IVGG (KTNATLDPRIVGGK)"
